This is an account of results in paper PMC6901930.

For this data set, the target named is Major capsid protein (MCP), Trx fusion (Singapore grouper iridovirus (SGIV-Gx), UniProt Q5YFJ3 1-463). Briefly: EMSA. The following applies: protein: recombinant; tags: Trx-His (pET-32a), 68 kDa.

B1: Q5c (ssDNA)
DNA: TATTCGGGTTATTGCTCCTCTTTATTGTCACCTGGATGTATGATCGTGTAG
With B1, the binding result is “binds”.
